From US20220056091A1 (BRIGHT PEAK THERAPEUTICS, published 2022)
Positions count from the first letter of the chain named.

Experiments:
Assay in all cases: cell-based or functional assay
[1] = target: T1, Modified IL-18 polypeptide of SEQ ID NO: 16 (C38S, C68S, C76S, C127S, K70C) (human, UniProt Q14116 37-193)
T1 chain: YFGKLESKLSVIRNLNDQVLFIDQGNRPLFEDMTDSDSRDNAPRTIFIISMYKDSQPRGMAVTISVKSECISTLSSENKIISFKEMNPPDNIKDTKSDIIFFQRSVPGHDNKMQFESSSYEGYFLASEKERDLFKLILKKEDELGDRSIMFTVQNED

[2] = target: Modified IL-18 polypeptide of SEQ ID NO: 8 (E06K, S55A) (human, UniProt Q14116 37-193)
[3] = target: T2, Modified IL-18 polypeptide of SEQ ID NO: 71 with a 30 kDa PEG attached at residue C68 (E6K, C38S, K53A, … (human, UniProt Q14116 37-193, 30 kDa PEG on Cys 68 (30 kDa DBCO-polyethylene glycol clicked to a bromoacetamido-PEG5-azide linker on the cysteine)))
T2 chain: T1 chain with E6K, K53A, S68C, C70K, S76C, S127C

[4] = target: Modified IL-18 polypeptide of SEQ ID NO: 21 (K53A, T63A) (human, UniProt Q14116 37-193)
[5] = target: Modified IL-18 polypeptide of SEQ ID NO: 4 (K53A) (human, UniProt Q14116 37-193)
[6] = target: T3, Modified IL-18 polypeptide of SEQ ID NO: 22 (E06K, K53A, C38S, C68S, C76S, C127S, K70C) (human, UniProt Q14116 37-193)
T3 chain: T1 chain with E6K, K53A

[7] = target: T4, Modified IL-18 polypeptide of SEQ ID NO: 10 (E06K, K53A, S55A, T63A) (human, UniProt Q14116 37-193)
T4 chain: T1 chain with E6K, S38C, K53A, S55A, T63A, S68C, C70K, S76C, S127C

[8] = target: Modified IL-18 polypeptide of SEQ ID NO: 7 (E06K, K53A) (human, UniProt Q14116 37-193)
[9] = target: T5, IL-18 polypeptide of SEQ ID NO: 1 (native sequence, human IL-18 37-193) (human, UniProt Q14116 37-193)
T5 sequence: T1 chain with S38C, S68C, C70K, S76C, S127C

[10] = target: Modified IL-18 polypeptide of SEQ ID NO: 9 (K53A, S55A) (human, UniProt Q14116 37-193)
[11] = target: Modified IL-18 polypeptide of SEQ ID NO: 6 (E06K) (human, UniProt Q14116 37-193)
[12] = target: T6, Modified IL-18 polypeptide of SEQ ID NO: 15 (C38S, C68S, C76S, C127S) (human, UniProt Q14116 37-193)
T6 chain: T1 chain with C70K

[13] = target: T7, Modified IL-18 polypeptide of SEQ ID NO: 14 (E06K, K53A, S55A, M51G) (human, UniProt Q14116 37-193)
T7 chain: T1 chain with E6K, S38C, M51G, K53A, S55A, S68C, C70K, S76C, S127C

[14] = target: T8, Modified IL-18 polypeptide of SEQ ID NO: 2 (E06K, K53A, S55A) (human, UniProt Q14116 37-193)
T8 chain: T1 chain with E6K, S38C, K53A, S55A, S68C, C70K, S76C, S127C

[15] = target: T9, Modified IL-18 polypeptide of SEQ ID NO: 11 (E06K, K53A, S55A, Y01G) (human, UniProt Q14116 38-193)
T9 chain: T1 chain with Y1G, E6K, S38C, K53A, S55A, S68C, C70K, S76C, S127C

B1: Fc fused human IL-18BP isoform a (IL-18BPa) (Fc fusion, UniProt O95998 31-194, looked up, not shown: a dimerising Fc or GST)
chain: TPVSQTTTAATASVRSTKDPCPSQPPVFPAAKQCPALEVTWPEVEVPLNGTLSLSCVACSRFPNFSILYWLGNGSFIEHLPGRLWEGSTSRERGSTGTQLCKALVLEQLTPALHSTNFSCVLVDPEQVVQRHVVLAQLWAGLRATLPPTQEALPSSHSSPQQQG
IC50 (nM), IL-18BPa inhibition of IFNγ release by NK-92 cells (1 nM IL-18 analyte) [1]: 0.114 nM
IC50 (nM), IL-18BPa inhibition of IFNγ release by NK-92 cells (1 nM IL-18 analyte) [2]: 15 nM
IC50 (nM), IL-18BPa inhibition of IFNγ release by NK-92 cells (1 nM IL-18 analyte) [3]: 0.66 nM
IC50 (nM), IL-18BPa inhibition of IFNγ release by NK-92 cells (1 nM IL-18 analyte) [4]: 18.2 nM
IC50 (nM), IL-18BPa inhibition of IFNγ release by NK-92 cells (1 nM IL-18 analyte) [5]: 27.3 nM
IC50 (nM), IL-18BPa inhibition of IFNγ release by NK-92 cells (1 nM IL-18 analyte) [6]: 23.5 nM
IC50 (nM), IL-18BPa inhibition of IFNγ release by NK-92 cells (1 nM IL-18 analyte) [7]: 1060 nM
IC50 (nM), IL-18BPa inhibition of IFNγ release by NK-92 cells (1 nM IL-18 analyte) [8]: > 703 nM
IC50 (nM), IL-18BPa inhibition of IFNγ release by NK-92 cells (1 nM IL-18 analyte) [9]: 1.47 nM
IC50 (nM), IL-18BPa inhibition of IFNγ release by NK-92 cells (1 nM IL-18 analyte) [10]: 37.3 nM
IC50 (nM), IL-18BPa inhibition of IFNγ release by NK-92 cells (1 nM IL-18 analyte) [11]: 7.79 nM
IC50 (nM), IL-18BPa inhibition of IFNγ release by NK-92 cells (1 nM IL-18 analyte) [12]: 0.444 nM
IC50 (nM), IL-18BPa inhibition of IFNγ release by NK-92 cells (1 nM IL-18 analyte) [13]: 0.189 nM
IC50 (nM), IL-18BPa inhibition of IFNγ release by NK-92 cells (1 nM IL-18 analyte) [14]: 229 nM
IC50 (nM), IL-18BPa inhibition of IFNγ release by NK-92 cells (1 nM IL-18 analyte) [15]: 27.8 nM
